Measurements from a protein production outcome set (Wang et al. 2014).

assay: label from the status in PepcDB records

Sequence	protein production
HKSMSKMKSTLKQFISMGNMLTAENNFFRQMQGLLSETTEIAAMTGGIIFLADKQEGHFTPTAFRWNGENIPVAEMPSLSITEDSFTTFQPVLEGKTIAGTLNKENIFHQLQDFLQPYLPLRFVAVPMKTHDKQLLGFLLLFNPYQLNAEREHSKIQLVNALVGSLSVSVETQQLLQEQKNLLNA	failed
HMARSLYPLGVSRSLPPYRRTFNHQTFIFVKSILRLGVSMEEEEFDIREALANGEHLEKILIMAKYDESVLKKLIELLDDDLWTVVKNAISIIMVIAKTREDLYEPMLKKLFSLLKKSEAIPLTQEIAKAFGQMAKEKPELVKSMIPVLFANYRIGDEKTKINVSYALEEIAKANPMLMASIVRDFMSMLSSKNREDKLTALNFIEAMGENSFKYVNPFLPRIINLLHDGDEIVRASAVEALVHLATLNDKLRKVVIKRLEELNDTSSLVNKTVKEGISRLLLLEGHSSS	not failed
HMPSVIVVGGQWGDEGKGSIVAYLSLHDEPEIIARGGVGTNAGHSVVINGKKYAVRQIPTGFMQTKARLLIGAGVLVDPEVFFHELEQLKDFNVKDRVGIDYRCAIIEEKHKQLDRTNGYLHGKIGTTGSGCGPANADRVMRKAKQAKDVKELEPYLTDVAQEINDALDEGSLVLVEGTQGFGLSLYYGTYPYVTSKDVTASSVAADVGIGPTRVDEVIVVFKSFPTRVGAGPFPTEMPMEEADRLGLVEYGTVTGRRRRVGWFDFEMARYSARINGATMLAVTMLDKYDKEAFGVTDYDKLPRKAKEFIEEIEERVGVPVGLIKTGPELEHIIDRRDTI	not failed
HNESIRYLIVPGWQGSPDDHWQAHWQNSLPNSTRVEQADWLKPRREDWVGELQRTIAAQSTPVILIAHSLGCVTVAHWAQLAPLETLRQVQGALLVAPADVERPNCPPALRNFAPIPADLLPFPTQVVSSDNDPAVSSQRAIEMARHWGAELGFLSQAGHINVKSGHQRWEQGFAYLYRLQNRLEQ	failed
HPQYIVFCDFDETYFPHTIDEQKQQDIYELEDYLEQKSKDGELIIGWVTGSSIESILDKMGRGKFRYFPHFIASDLGTEITYFSEHNFGQQDNKWNSRINEGFSKEKVEKLVKQLHENHNILLNPQTQLGKSRYKHNFYYQEQDEINDKKNLLAIEKICEEYGVSVNINRCNPLAGDPEDSYDVDFIPIGTGKNEIVTFMLEKYNLNTERAIAFGDSGNDVRMLQTVGNGYLLKNATQEAKNLHNLITDSEYSKGITNTLKKLIGFMRR	failed
HQIVHVRGDSETDLEALFNAVMNPKTANVPQTVPMRLRKLPDSFFKPPEPKSHSRQASTDAGTAGALTPQHVRAHSSPASLQLGAVSPGTLTPTGVVSGPAATPTAQHLRQSS	failed
HRAQRQQMTVLRGDAQSIDIIDLQTFIDSFEEHIWVKNTEGVYTICNQSVEKAWDLPRSDIVGKTDEDLFGKAIADIFLNGDRLAIEAGAPIIVAECLDGENKNNHLWLETLKLPALTPDGELAGVIGMTRNISKHKEVEEQLTLATNVFKHSF	failed
HRYIPTLFFHGWGSSYHAETHMADAIVKAGKTQTIVRAMVAKNGTVTLKGHFRSGDYRPIVEVNFANNRSSDYPTVGRWAKNVVVALQRTYGITSFNMVGHSMGNMAITYYLLANAQNKRLPQLRQQVAIAGHFNGILGMDDSPNQMTLNAAGRPNKLRPAYRQLLGLRRVYPRQQVRVLNIYGDKGDGTHSDGSVSNASSRSLRYLVAARARSYREVKLTGKHAQHSQLHENAQVDRLLIDFLWPTH	not failed
HSEPSHQSKAVVELPHKQGMARLAAGLLHPDMTIYLDAGTSTLEIVPHIIALSGMTVVTNDFGVVNALADAAHVDVIHTGGLLDHPNRSSVGGLAAATLRQLATDVAFMSTSSWDLQRGTTTPSALKVEVKQAAMQSASQTVLVATSSKY	failed
HTYKSLFVAPCDAGVKSIKDLKGKSVAFVDPASTSGGLMPTYMVKKETGMMPQQFFGKFTYSGSHDAAELAVKNKTVDAAADNDITYEKMLAKGLITKETNCVVKESDPLPGSPLVYRKDLPAATKKKIRDAILNAH	failed
IDKKLTTLADLFRPPIDLMHKGSFETAKECGQMQNKWLMINIQNVQDFACQCLNRDVWSNEAVKNIIREHFIFWQVYHDSEEGQRYIQFYKLGDFPYVSILDPRTGQKLVEWHQLDVSSFLDQVTGFLGEHGQLDGLSSS	not failed
IDPVMVAAFEGWNDAGDAASTAVAHLDREWKGEVFAALDAEDYYDFQVNRPTVWLDGGVRKITWPTTRLSVVRVGGEKPRDLVLVRGIEPSMRWRSFCNELLAFAHELGVELVVVLGALLGDTPHTRPVPVSGVTSDPDLARTMDLEETKYEGPTGIVGILQEACTHAGVPAVSLWAAVPHYVSQPPNPKATLALLNRLEDLIDVRIPLGELPEDARAWQVGVDQLAAEDSEVAEYVQSLEEARDTA	not failed
IDRSTHFALRYRTLCHQQAQFKSPLRGLRGTRASLIPHQLHIAAEVGNRVNPRVLLADEVGLGKTIEAGMILQNQLFAEKVQRVLIIVPETLQHQWLVEMLRRFNLHFALFDEERCNDFDLDAVNPFTTESLIICSLNWLETHPNRVELVLNAQFDCLIVDEAHHLVWSETSPSTAYLLVEQLARIIPSVLLLTATPE	failed
IEEVYEATLDAIQGALNCDRASILLFDEAGTMRFVAARGLSEHYQRAVDGHSPWITGANEPEPIFVENVDDAEFSRELKESIVGEGIAALGFFPLVTEGRLIGKFMTYYDRPHRFADSEIGMALTIARQLGFSIQRMRAEYARRQAEE	not failed
IEPEYFGEDAAENILIGWGSLEGAIKEAVNDLNKEGKEKYAALIFGDVWPLPEKLLREKASKAKTLIDVEQNAQGQLADIIREGTGIEVDKKILKYDGRPIMASYIVGRIKE	not failed
IESASDMIAAFGKDQRFITFNEAYQREFKRLFDKSISINMSLEEAFNNAPENKKKLVQSWKESLQRDEETKNIEVNTEQEKTIYEMTSKLIQNGDNEIKGVVHSVRNIT	failed
IEVSYHTPDGVPGVVMTTPKLDDGTPFPTLYYLTEPRLTAEASRLEVAHVMKWMTDRLHSDEELRQDYERAHEYFLAKRNALEDLGTDFSGGGMPDRVKCLHVLIAYALAEGPDHFRLGTEAVALA	failed
IGPSSSHTMGPMTAANVFRDHVDQLVSQTPDDLNYRVYCVLKGSLAFTGRGHATDRAVALGLHGHSPVSLAGEDVNALTAKLWATDTLQLTSGREIGFNPEDDIVFDKSDPLPQHPNGMIFYLLDEEGKKILSETFFSIGGGFICTLAEINQ	not failed

Sequence	protein production
IKATYETFSSPNGHGEGRGYLVMPQKKTIKSPTVLVIHENRGLNPYIKDVARRLAKDGFIAFAPDALYPLGGYPGNDDEGRAMQKEMDRAKIEQDFIAAAKFIKQHEHGNGKLGAVGFCFGGYVVNMLAAVMPNELDAGVPFYGTPAAEEIQKQVKGPLMLHFAGLDKRVNDTWPSYEQQLIASGAKYQALMYENVNHGFHNDSTARYAPEEAALAWERTLAFFKEHL	failed
IKAVFDPDNRLNPGKICPPEGIDAPMMKVDAAKRGTWDRQIPIAVRSSWRGAMECNGNGLCFNFDVKSPMCPSMKVSNQRIHSPKGRATLVREWLRLLADRGVDPNQLEKALPEQGVSLRSLVARTRNSWHARKGEYDFSHEVKEAMSGCLACKACSTQCPIKIDVPEFRSRFLQLYHSRYLRPVRD	failed
IKKNVFNIFYLFLVLEELKGPVLYIVGTPIGNLEDITYRAIDVLKSVNVIFAEDTRVTSKLLSRYKINKKMISCNAVTENKKISLLLDYLAKGNSVAFVSDAGTPGLSDPGSLLVAAAFREGYKVCPIPGV	failed
ILIQINPLDNVAIVVNDHGLEKQTVIEEYQLTLVDDVPQGHKVLLKALKKDEAIIRYGEIIGYANADLEAGRWVNESVTRMPEA	failed
IMDQDGRSMFADGSKVPFERTRLLLQRLAVPLRATPLRVTIVGHTSSGLMPERSDYNGWDLSSDRANSVRQILEREGLPGSHIFAVTGKADSQPLFPDDPSIAANRRVTITLMRESPALP	failed
INRRRDSKQMTEHNLSVVNTATLYIVPTPIGNLGDITQRAIEVLKSVDLIAAEDTRHTGKLLSHFGIASQTFALHDHNEQHKADLLISKLQQGLSIALVSDAGTPLISDPGYHLVNRCRQANVNVVPLPGA	failed
IPGPGFTAGAQGSCSLRCGAQDGLCSCHPTCSGLGTCCEDFLDYCLEILPSSGSMMGGKDFVVQHLKWTDP	not failed
IQNVLSYITEHFSEGMSLKTLGNDFHINAVYLGQLFQKEMGEHFTDYLNRYRVNYAKEELLQTKDNLTIIAGKSGYTDMAYFYRQFKKHTGETPNRYRKIHQ	failed
IRQRKRAERALNDQLEFMRVLIDGTPNPIYVRDKEGRMLLCNDAYLDTFGVTADAVLGKTIPEANVVGDPALAREMHEFLLTRMAAEREPRFEDRDVTLHGRTRHVYQWTVPYGDSLGELKGIIGGWIDIT	failed
IRSIWENNGFGLMSSKTMTDFDYWISDFEKIGASQKEAEQLIVKAIEIAIDANARNYNYINAILKDWEQRGFKSVEEREAARKQKKTTKKQKSNTGHSDYDDLGF	not failed
IRTHLNLPSDKKVIMYAPTWRDDEFVSKGKYLFELKIDLDNLYKELGDDYVILLRMHYLISNALDLSGYENFAIDVSNYNDVSELFLISDCLITDYSSVMFDYGILKRPQFFFAYDIDKYDKGLRGFYMNYMEDLPGPIYTEPYGLAKELKNLDKVQQQYQEKIDAFYDRFCSVDNGKASQYIGDLIHKDIKEQ	failed
ISCSDPNPLDSYTRVPFEKTETDDGNGDGDGDGAGGLFEKGNGTDSKPYMIMNATQIRNMRSVLKSGMKVYFQLGADIDMAGIDDWQSLNGSGDFPYEIDFDGDSHVIKNFKCSAGDYPSFFGVLCGDCRNVGFVNASVSSARQGIGIITGYLGLKDKGNGNKTGRIVNCYTTGEVIGSGAAGGIAGVLANSYDGQESYIKNCYSNATVSDRAASGGKAGGIAGRKVGVGGFIENCYAYGAVSATKGGVGGILGQIDKSCDIAIKNSAAWSNLTGVDASSTVGRIVGVSASLGSYENCYACESIVLKVNEKTITASDESSATGTTFHGVAKSAEELGNIIVAWNPNLWKKGTNGYPIFQWSE	not failed
ISRRNQDMLLSVLDLEKMTVDDIMVPRSEIIGIDINDDWKSILRQLSHSPHGRIVLYRDSLDDAISMLRVREAWRLMSEKKEFTKETMLRAADEIYFVPEGTPLSTQLVKFQRNKKKVGLVVNEYGDIQGLVTVEDILEEIVGDFTTSMS	not failed
ISTVSGKVERLISFDIAKRWYLRDIAERMYTSESLIKKKLQDENTCFSKILLASRMSMARRLLELRQIPLHTIAEKCGYSSTSYFINTFRQYYGVTPHQFAQHSPGT	failed
IYGLVQRCVIIQKDDNGFGLTVSGDNPVFVQSVKEDGAAMRAGVQTGDRIIKVNGTLVTHSNHLEVVKLIKSGSYVALTVQGRPPGSPQIPLADSEVEPSVIGHMSPIMTSPHSPGASGNMERITSPVLMGEENNVVHNQK	failed
KAPNLYMTDTTGTYRYLYDVQAKYTILFFWDSQCGHCQQETPKLYDWWLKNRAKGIQVYAANIERKDEEWLKFIRSKKIGGWLNVRDSKNHTDFKITYDIYATPVLYVLDKNKVIIAKRIGYENLDDFLVQYEKSLKTK	not failed
KDADHIHHLIDQSLIAKGFQEILTNSLTKGAYNELLSKQEDAVPILNKLSEELAFMRPSLAFTGLETVAYNINRRQKNLKLFEWGKVYFKRGTKYNEYNRLSVFITGNQHAESWNTPSKTVDFFDMKAVVVQILEKLHIAVTQVQEIESNPLFSKGVIYKHAGKELVQFGYISQAALKATDVKQEVLFADFNADLLLELYSNKSKYKEIS	not failed
